The results in this text go back to US9529005B2, “Modulating bacterial MAM polypeptides in pathogenic disease” (priority 2011, dated 2016).

Experiment [1] can be described thus: Liposome association assay. Particulars: individual GST-mce domains, 1-80 mol % PA, densitometry; relative to high binding mce domains. It is filed as binding. As to the method:
PBS-buffered liposomes were prepared from 1,2-Dioleoyl-sn-glycero-3-phosphocholine (PC) or mixtures of PC and 1,2-dioleoyl-sn-glycero-3-phosphate (PA) (both Avanti Polar Lipids Inc.) as described previously (Selyunin et al., 2011), but using PBS as buffer. 300 μg liposomes were incubated with 100 μg MBP-MAM protein in PBS for one hour at 22° C. Mixtures were centrifuged at 100 000×g, 4° C. for one hour and both pellet and supernatant fractions were separated by SDS-PAGE and proteins were detected by Coomassie staining.
Binding of GST and GST-mce constructs to liposomes were carried out as described in the literature (Krachler et al., 2011). 300 μg liposomes containing PC alone or 1-80 mol % PA were incubated with 100 μg GST and GST-mce proteins in PBS for one hour at 22° C. Mixtures were centrifuged at 100,000×g, 4° C. for one hour and both pellet and supernatant fractions were separated by SDS-PAGE and proteins detected by Coomassie staining Band intensities were determined using the gel analysis software UN-SCAN-IT (Silk Scientific Inc.) and intensities of pellet samples (% bound) were expressed as fraction of total intensities (supernatant and pellet samples combined).

A short description of experiment [2]: Pull-down of liposomes (50 mol % PA, 50 mol % PC) on immobilized GST-mce domains. It is filed as binding. Conditions: 50 mol % PA and 50 mol % PC, molybdophosphoric acid assay. As to the method:
Liposomes in load, flowthrough and eluate fractions were quantified using the method of Worth an Wright (1977). Briefly, samples were extracted with a mixture of chloroform and methanol, centrifuged and molybdophosphoric acid (Sigma) was added to the organic phase. Samples were centrifuged and the aqueous phase removed. Metol and sodium bisulfate were added to reduce the organic phase and the aqueous phase was removed again following centrifugation. The amount of phospholipid was determined by measuring absorbance at 680 nm and expressed as fraction of the amount detected in loaded fractions.
Although the inventors had previously shown that MAM1 is sufficient to bind to phosphatidic acid, it was unclear how the other mce domains contributed to phosphatidic acid binding in the absence of fibronectin. The inventors tested all seven individual mce domains (mce1-mce7) for phosphatidic acid binding using liposome association assays. Proteins were incubated with liposomes containing a mixture of PC and increasing amounts (1-80 mol %) of PA, followed by separation of liposome-bound and un-bound fractions by ultracentrifugation. All fractions were analyzed by SDS-PAGE (data not shown) followed by densitometry (FIG. 18A). […] When the inventors analyzed the mce domains of MAM7 for overall charge, they found only minor differences between individual domains. When they looked at charge distribution, however, the inventors observed that several basic residues that are otherwise well conserved between individual domains are mutated in mce 6. These include two residues which are lysines in mce 2, the strongest binding mce domain, but a serine and glutamine in mce 6, respectively, and a well conserved arginine which is replaced by a histidine in mce 6 (FIG. 18D). […]. (FIG. 18B and data not shown). […] GST-mce proteins were immobilized and incubated with liposomes. Bound liposomes were quantified using a molybdophosphoric acid assay. […]

B1: mce 3: GST-tagged individual mce domain 3 of V. parahaemolyticus MAM7 (SEQ ID NO: 7) (protein, listed as Vibrio parahaemolyticus)
chain: RGIAIKIALPDDNKVSSEGAPIMYRGIEIGQVTDLSLSEGREVILASAAIQPAFSDMLTTGTRFVLEEAKVSLSGVENIANLVRGNFLTIVPG
modifications: GST tag
For the molecule B1, the “decrease of binding to PA-containing liposomes (apparent affinity)” value (“decrease of binding” for short) in experiment [1] was “bound equally well”. Besides, the “binding of liposomes to immobilized GST-mce proteins” value (from here on “binding of liposomes”) in experiment [2] is recorded as “strong binding”.

B2: mce 6: GST-tagged individual mce domain 6 of V. parahaemolyticus MAM7 (SEQ ID NO: 10) (protein, listed as Vibrio parahaemolyticus)
chain: FGRVISLETDGTQEVLKGMPIEYQGVKVGEVTLVVPNFRRNLVEVTARILPEYVENIAVEGTHFWLTEPEIGLGGVKNLGALVSKSISVEPG
modifications: GST tag
For the molecule B2, the “decrease of binding” value in experiment [1] is given as “more than 100 fold”. In experiment [2], the “binding of liposomes” value is reported as “weaker binding”.

B3: mce 1: GST-tagged individual mce domain 1 of V. parahaemolyticus MAM7 (SEQ ID NO: 5) (protein, listed as Vibrio parahaemolyticus)
chain: AGQRVQIYFSDAAGLVAGRTTIRYQGLEVGMVRDINLSEDLGSIYVDADIYPEATKLLNDKTRFWLVKPTASLTGVSGLDALVSGNYISIQPG
modifications: GST tag
In the case of B3, the “decrease of binding” value in experiment [1] was “bound equally well”. The “binding of liposomes” value in experiment [2] was “strong binding”.

B4: mce 4: GST-tagged individual mce domain 4 of V. parahaemolyticus MAM7 (SEQ ID NO: 8) (protein, listed as Vibrio parahaemolyticus)
chain: SIAIRLISDNSFGLDSGANVLYKGIVVGSIINVGLVDEKKQTKHEVFMDVLIDHEYKHLIKSNNRFYVTGSASAELTESGLSVTVP
modifications: GST tag
Take B4: the “decrease of binding” value in experiment [1] was “bound equally well”. The “binding of liposomes” value in experiment [2] was “strong binding”.

B5: mce 7: GST-tagged individual mce domain 7 of V. parahaemolyticus MAM7 (SEQ ID NO: 11) (protein, listed as Vibrio parahaemolyticus)
chain: EGVMFTLQSEQRGSVQVGTPVLYRQMEVGQVTDVRLGEFADRVVSTIKIKPEYAYLVRQNSVFWNVSGVDVSIGITGANIKAGTIDSLVRG
modifications: GST tag
Take B5: in experiment [1], the “decrease of binding” value is approximately 20 fold. Also, the “binding of liposomes” value in experiment [2] was “strong binding”.

B6: mce 2: GST-tagged individual mce domain 2 of V. parahaemolyticus MAM7 (SEQ ID NO: 6) (protein, listed as Vibrio parahaemolyticus)
chain: QGLNIKLKSRDLGGVSIGSQIVYKKIPIGAVYSYQLDEDAKSITIQANIQEQYRHIINDRSRFWNVSGIGASIGFEGVDVRLESMSALLGG
modifications: GST tag
For B6, the “decrease of binding” value in experiment [1] was “bound equally well”. The “binding of liposomes” value in experiment [2] was “strong binding”.

B7: mce 5: GST-tagged individual mce domain 5 of V. parahaemolyticus MAM7 (SEQ ID NO: 9) (protein, listed as Vibrio parahaemolyticus)
chain: GSKTLMLFASELPPISKGSPLLYRNLPVGNVSDFHLVDGGVLIKATIENRFAYLVTPQTVFWNRSGIEIDASLSGVSVKAHPLKSLIEG
modifications: GST tag
Consider B7, for which, in experiment [1], the “decrease of binding” value was approximately 6 fold. Further, the “binding of liposomes” value in experiment [2] was “weaker binding”.
